Here are results for two molecules from patent US20190184015A1, “IRRADIATION TREATMENT OF NEUROLOGICAL SENSATIONS BY PHOTOABLATION” (European Molecular Biology Laboratory, priority 2016, published 2019).

“Also recorded” adds a separate entry of the source.

In data set [1] the target is native TrkB receptors in DRG neurons (mouse) (mouse) (UniProt P15209). Nature of the data set: Qdot 655 conjugated ligand on dissociated DRG of TrkBCreERT2::Rosa26RFP mice, counting of labelled cells.
Data set [2] relates to baseline sensory behavior. The data set can be described thus: Behavioral responses under basal conditions after photoablation in the paw. The data set is classed as in vivo, mouse. The method, then: (§1) The inventors next sought to assess the therapeutic potential of this approach by investigating the effects of BDNF^SNAP-IR700 mediated photoablation in wildtype mice with neuropathic pain. Upon establishment of robust mechanical allodynia three days after SNI, a range of concentrations of BDNF^SNAP-IR700 was injected into the ipsilateral paw of injured mice and the skin illuminated with different light intensities. […] It was examined whether such pronounced effects were also evident in other types of neuropathic pain. […] To determine the selectivity of this approach, the inventors further assessed the effects of BDNF^SNAP-IR700 mediated photoablation on behavioral responses under basal conditions. No deficits in sensitivity to cold, heat, or pinprick upon treatment were observed (FIG. 8f to h). Responses to cotton swab were also unaffected by photoablation (FIG. 3i), perhaps because the skin area that is stimulated in this test extends beyond the zone of illumination.

Data set [3] relates to TrkB+ neurons. The data set can be described thus: Spared Nerve Injury (SNI) model, photoablation in the paw. The data set is classed as in vivo, mouse.
From the text: Next neuropathic pain was induced in mice using the Spared Nerve Injury (SNI) model. Control mice developed a profound mechanical hypersensitivity in the sural nerve territory of the paw to both von Frey filaments and dynamic brush stimuli (FIGS. 6D and E). […] The inventors performed further experiments in TrkBCreERT2::Rosa26ChR2 mice to optogenetically activate these neurons. Three days after injury it was observed that selective stimulation of TrkB neurons with light evoked behavior indicative of pain. This was evident as a prolonged paw withdrawal from the stimulation, lifting of the paw and licking of the illuminated area (FIG. 6F) that continued for several minutes after light application. Such behavior persisted throughout the 2 weeks observation period and was never observed in control mice (FIG. 6F).
as §1

In data set [4] the test system is TrkB positive afferents. Nature of the data set: Innervation of skin and DRG neuron counts after photoablation. Format: in vivo, mouse. From the text: Prior to photoablation, TrkB positive lanceolate endings were detected around hair follicles (FIG. 9a) and innervating Meissner corpuscles in the plantar surface of the paw. […] It was further investigated whether loss of TrkB^CreERT2 neurons was also evident at the level of the cell soma by analyzing the number of TrkB^CreERT2 positive neurons in the DRG.

Data set [5] has as its system HEK293T cells expressing TrkB/p75. The data set can be described thus: BDNF^SNAP-IR700 photoablation of HEK293T cells (propidium iodide). The data set is classed as cell-based. From the text: In initial experiments BDNF^SNAP-IR700 was applied to HEK293T cells expressing TrkB/p75 and cell death assayed following near infrared illumination.
Data set [6] has as its system TrkB+ neurons. The data set can be described thus: Streptozotocin model of painful diabetic neuropathy. The data set is classed as in vivo, mouse. The method, then:
as §1

Data set [7] relates to skin cell types. To be noted: mouse, in vivo.
The test system of data set [8] is TrkB+ neurons. The data set can be described thus: Paclitaxel model of chemotherapy induced neuropathic pain. The data set is classed as in vivo, mouse. The method, then:
as §1

In data set [9] the test system is TrkB sensory fibers. Nature of the data set: Behavioral sensitivity after photoablation in the sciatic nerve. Format: in vivo, mouse.
From the text: It was further investigated whether optogenetically evoked pain behavior in SNI mice is dependent upon CD34 + cells or TrkB+ fibers in the skin.
Where [10] appears, read: SNI mice, injection into ipsilateral paw and illumination.
Setting [11] is: injection into sciatic nerve, nerve illuminated.

native TrkB receptors in DRG neurons (mouse) (mouse), sequence (P15209 32-821): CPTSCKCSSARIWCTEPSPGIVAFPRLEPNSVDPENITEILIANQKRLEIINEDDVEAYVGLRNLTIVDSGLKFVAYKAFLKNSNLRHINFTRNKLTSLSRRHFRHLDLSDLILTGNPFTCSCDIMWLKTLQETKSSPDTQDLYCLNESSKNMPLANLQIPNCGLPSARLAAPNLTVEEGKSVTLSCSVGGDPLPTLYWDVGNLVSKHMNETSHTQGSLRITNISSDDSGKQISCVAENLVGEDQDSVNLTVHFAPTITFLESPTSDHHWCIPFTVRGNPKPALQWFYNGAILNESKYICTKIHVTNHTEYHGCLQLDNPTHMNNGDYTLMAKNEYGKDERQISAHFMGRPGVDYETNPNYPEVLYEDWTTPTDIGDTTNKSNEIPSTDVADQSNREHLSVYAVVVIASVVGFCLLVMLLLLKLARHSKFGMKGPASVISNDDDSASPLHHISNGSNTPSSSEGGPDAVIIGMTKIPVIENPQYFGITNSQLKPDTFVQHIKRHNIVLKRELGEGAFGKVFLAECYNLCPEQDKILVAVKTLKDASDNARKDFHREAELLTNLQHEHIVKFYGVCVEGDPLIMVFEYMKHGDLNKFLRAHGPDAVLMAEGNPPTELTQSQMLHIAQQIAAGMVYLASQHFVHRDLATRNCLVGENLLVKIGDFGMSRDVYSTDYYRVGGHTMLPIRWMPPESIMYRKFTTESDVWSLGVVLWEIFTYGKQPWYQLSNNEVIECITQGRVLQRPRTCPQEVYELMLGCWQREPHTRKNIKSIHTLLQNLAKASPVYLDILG

With BDNF^SNAP (ligand), the overlap between BDNF^SNAP and TrkBCreERT2 positive cells in data set [1] is more than 95%.

B1: BDNF^SNAP-IR700: BDNF^SNAP conjugated in vitro to benzylguanine modified IRDye®700 DX phthalocyanine (conjugate, UniProt P23560 19-247, looked up)
Neurotrophic factor BDNF …: APMKEANIRGQGGLAYPGVRTHGTLESVNGPKAGSRGLTSLADTFEHVIEELLDEDQKVRPNEENNKDADLYTSRVMLSSQVPLEPPLLFLLEEYKNYLDAANMSMRVRRHSDPARRGELSVCDSISEWVTAADKKTAVDMSGGTVTVLEKVPVSKGQLKQYFYETKCNPMGYTKEGCRGIDKRHWNSQCRTTQSYVRALTMDSKKRIGWRFIRIDTSCVCTLTIKRGR
modifications: C-terminal SNAP tag; IRDye700DX conjugate
notes: BDNF^SNAP conjugated in vitro to benzylguanine modified IRDye®700 DX phthalocyanine
For B1, in data set [2], the “responses to cotton swab” value was “unaffected; also recorded: does not affect baseline sensory behavior responses”, the “sensitivity to cold (acetone drop test)” value is on record as “No deficits; also recorded: does not affect baseline sensory behavior responses”, the “sensitivity to heat (hot plate test)” value was “No deficits; also recorded: does not affect baseline sensory behavior responses” and the sensitivity to pinprick result is on record as “No deficits; also recorded: does not affect baseline sensory behavior responses”. In data set [3] (setting [10]), the “cotton swab evoked allodynia” value is “concentration and illumination dependent rescue; also recorded: reversed by photoablation”; the “dynamic brush evoked allodynia” value is “concentration and illumination dependent rescue; also recorded: dose dependent reversal of mechanical hypersensitivity”; the “von Frey withdrawal thresholds” value is “concentration and illumination dependent rescue; also recorded: dose dependent reversal of mechanical hypersensitivity”. Also, the persistence of rescue entry in data set [3] (after a single treatment regime) is recorded as “more than 3 weeks”. Further, the “innervation of hairy and glabrous skin” value in [4] (7 days after photoablation (13 days post-SNI)) is recorded as “selective loss of TrkB fibers but persistent innervation by PGP9.5 fibers; also recorded: Substantial loss of TrkB^CreERT2 positive afferents (red), but persistence of other fibers”. Also, the “proportion of TrkB neurons in the DRG” value in data set [4] (10 days after photoablation) is “No differences in the proportion of TrkB neurons”. Moreover, in data set [4] (24 days post-photoablation), the “innervation of skin by TrkB positive fibers” value was “TrkB positive fibers were again seen innervating their appropriate end organs; also recorded: Reinnervation of skin by TrkB^CreERT2 afferents”. In addition, in data set [5] (HEK293T cells expressing TrkB/p75, 24 hours after brief illumination), the “cell death after near infrared illumination” value was “substantial cell death”. Further, the “cell death after near infrared illumination” value in data set [5] (mock transfected HEK293T cells) was “not evident”. In addition, in data set [6], the “return to injury levels” value was not above 20 days and the “time of peak reversal” value is listed as “around 10 days post treatment”. Also, in data set [6] (5 μM at 200 J/cm^2), the mechanical hypersensitivity entry is “marked reversal of mechanical hypersensitivity; also recorded: reverses mechanical allodynia”. Also, in data set [7], the “number of CD34 positive cells in the skin” value was “significantly reduced the number of CD34 positive cells”; the “numbers of Merkel cells, keratinocytes, dendritic and dermal antigen presenting cells in the skin” value was “did not alter their numbers”. Moreover, in [8], the “return to injury levels” value is not above 20 days and the “time of peak reversal” value was “around 10 days post treatment”. The mechanical hypersensitivity result in [8] (5 μM at 200 J/cm^2) was “marked reversal of mechanical hypersensitivity; also recorded: reverses mechanical allodynia”. The “light driven nocifensive behavior” value in data set [9] (TrkB^CreERT2::Rosa26^ChR2 mice with SNI, sciatic nerve photoablation) was “significant reduction in light driven nocifensive behavior; also recorded: reduced by nerve photoablation”. Besides, in [9] (injection into sciatic nerve at mid-thigh level, nerve illuminated), the “behavioral response to cooling (acetone drop test)” value is given as “normal; also recorded: not altered by nerve photoablation”. For the same molecule, in [9] (setting [11]), the “behavioral response to heating (radiant heat test)” value is recorded as “normal; also recorded: not altered by nerve photoablation”, the “behavioral response to pinprick” value is listed as “normal; also recorded: not altered by nerve photoablation” and the “sensitivity to cotton swab” value is on record as “reduced by nerve photoablation”.
